Measured values taken from the Immune Epitope Database (IEDB).

Legend:
Test in all cases: IEDB peptide-MHC binding, purified MHC/competitive/radioactivity; filed as Kd, often an IC50 or EC50 that approximates it; ≥ and ≤ were set here for values at or beyond the usual limits of such assays
Details in all cases: source organism: Severe acute respiratory syndrome coronavirus 2
HLA-B*07:02 = molecular target: HLA-B*07:02
HLA-A*02:01 = molecular target: HLA-A*02:01
HLA-B*44:03 = molecular target: HLA-B*44:03
HLA-B*44:02 = molecular target: HLA-B*44:02
HLA-B*51:01 = molecular target: HLA-B*51:01
HLA-A*26:01 = molecular target: HLA-A*26:01
HLA-B*15:01 = molecular target: HLA-B*15:01
HLA-B*18:01 = molecular target: HLA-B*18:01
HLA-A*01:01 = molecular target: HLA-A*01:01

| Sequence | Kd (HLA-B*07:02) | Kd (HLA-A*02:01) | Kd (HLA-B*44:03) | Kd (HLA-B*44:02) | Kd (HLA-B*51:01) | Kd (HLA-A*26:01) | Kd (HLA-B*15:01) | Kd (HLA-B*18:01) | Kd (HLA-A*01:01) |
| --- | --- | --- | --- | --- | --- | --- | --- | --- | --- |
| APHGHVMVEL | 0.0061 µM |  |  |  |  |  |  |  |  |
| APRITFGGP | 0.059 µM | 0.893 µM |  |  |  |  |  |  |  |
| DEFVVVTV | ≥ 52.8 µM | 13 µM | 1.28 µM | 2.79 µM | 12.8 µM | 9.55 µM | 2.05 µM | 0.0005 µM |  |
| EEFEPSTQYEY |  |  | 0.00041 µM | 0.05 µM |  | 18.8 µM | 0.078 µM | 0.0011 µM |  |
| EIKESVQTF |  |  |  | ≥ 37.2 µM |  | 0.0078 µM | 4.93 µM |  |  |
| ELPDEFVVV |  | 0.46 µM |  |  |  | 6.86 µM |  |  |  |
| ELPDEFVVVTV |  | 0.0016 µM |  |  |  | 0.072 µM | ≥ 35.1 µM | 1.13 µM |  |
| FASEAARVV | 8.55 µM | 0.495 µM |  |  | 0.207 µM | 0.734 µM | 2.55 µM | ≥ 49.5 µM |  |
| FGDDTVIEV |  |  |  |  | ≥ 45.7 µM |  | 2.38 µM |  |  |
| HADQLTPTW |  |  | 1.8 µM | 5.26 µM |  |  | 13.4 µM | 3.35 µM |  |
| KNIDGYFKIY |  | 11.8 µM |  |  |  |  | 1.45 µM |  |  |
| KRVDWTIEY |  |  |  |  | ≥ 22.7 µM |  | 0.356 µM |  |  |
| LEDKAFQL |  | 3.89 µM | 0.208 µM | ≥ 35.4 µM |  |  | 14.7 µM | 0.035 µM |  |
| NATNVVIKV |  |  | 8.11 µM |  | 0.536 µM | ≥ 43.4 µM |  |  |  |
| SLEDKAFQL |  | 0.02 µM |  |  |  |  | 1.58 µM |  |  |
| STSAFVETV | 8.86 µM | 0.026 µM |  |  |  | 12.1 µM | 10.4 µM |  | 12.7 µM |
| VATSRTLSY |  |  |  |  |  | 11.8 µM | 0.267 µM |  | 18.8 µM |
| VGYLQPRTF |  |  |  |  |  |  | 0.777 µM | 0.707 µM |  |
